In series [1] the target is T1, ParT (Streptomyces coelicolor A3(2) (plasmid SCP2)) (UniProt Q8VWE5).
T1 sequence: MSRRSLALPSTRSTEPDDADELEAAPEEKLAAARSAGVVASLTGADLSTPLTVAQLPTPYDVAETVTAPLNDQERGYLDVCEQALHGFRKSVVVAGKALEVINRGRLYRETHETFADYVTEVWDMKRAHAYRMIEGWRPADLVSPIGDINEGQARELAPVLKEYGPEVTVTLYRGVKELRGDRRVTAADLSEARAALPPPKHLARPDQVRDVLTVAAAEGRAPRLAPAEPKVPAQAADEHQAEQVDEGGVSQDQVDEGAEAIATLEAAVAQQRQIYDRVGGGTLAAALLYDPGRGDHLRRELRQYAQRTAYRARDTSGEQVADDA
Put plainly: SPR. Particulars: 4 C; kinetics; DNA fragment assumed as in BLI; BLI: 100 mM Tris-HCl pH 8, 150 mM NaCl, 1 mM MgCl2, 0.005% Tween-20, temperature not given; SPR at 4 C on Biacore 8K. A general note: In SPR one partner is held on a chip, and binding of the other changes the refractive index at the surface.

In series [2] the target is T1, ParT (Streptomyces coelicolor A3(2) (plasmid SCP2)). Nature of the series: BLI. Particulars: BLI: 100 mM Tris-HCl pH 8, 150 mM NaCl, 1 mM MgCl2, 0.005% Tween-20, temperature not given.
In series [3] the test system is ParT (G87P) (Streptomyces coelicolor A3(2) (plasmid SCP2)). Put plainly: BLI. Particulars: BLI: 100 mM Tris-HCl pH 8, 150 mM NaCl, 1 mM MgCl2, 0.005% Tween-20, temperature not given; SPR at 4 C on Biacore 8K.
Series [4] has as its target T2, ParT (Streptomyces coelicolor A3(2) (plasmid …, UniProt Q8VWE5 1-325)).
T2 sequence: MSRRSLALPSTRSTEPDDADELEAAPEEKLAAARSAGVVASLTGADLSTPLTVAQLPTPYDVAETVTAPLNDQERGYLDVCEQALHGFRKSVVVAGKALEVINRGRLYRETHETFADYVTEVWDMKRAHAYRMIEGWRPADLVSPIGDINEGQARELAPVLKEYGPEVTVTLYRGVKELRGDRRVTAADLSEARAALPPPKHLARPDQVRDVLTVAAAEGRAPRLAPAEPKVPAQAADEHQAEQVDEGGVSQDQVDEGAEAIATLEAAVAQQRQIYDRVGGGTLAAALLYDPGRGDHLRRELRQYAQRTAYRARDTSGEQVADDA
Put plainly: BLI; no NTP; equilibrium analysis; BLI: 100 mM Tris-HCl pH 8, 150 mM NaCl, 1 mM MgCl2, 0.005% Tween-20, temperature not given; SPR at 4 C on Biacore 8K. To be noted: protein: recombinant; tags: C-terminal His6; chain copies: 2; label: 5' biotin on strand 1 (BLI); blunt.

Series [5] concerns the target T2, ParT. Put plainly: BLI; up to 2 uM ParT; BLI: 100 mM Tris-HCl pH 8, 150 mM NaCl, 1 mM MgCl2, 0.005% Tween-20, temperature not given; SPR at 4 C on Biacore 8K. Particulars: protein: recombinant; tags: C-terminal His6; chain copies: 2; label: 5' biotin on strand 1 (BLI); blunt. In general terms: In BLI a coated tip is dipped into the sample, and binding shifts an interference pattern.

Series [6] has as its target ParA-His6, ParA of plasmid SCP2 (Streptomyces coelicolor).
Series [7] deals with the molecule itself. Nature of the series: not stated; apo-ParT in solution (SI Appendix, Fig. S8A); the method is not told in the main text.

40-bp parS+10 duplex: the Kd (in general, the concentration at which binding is half-saturated) came to 730 nM in series [1] and 580 nM in series [2] (no NTP, equilibrium analysis, SPR at 4 C on Biacore 8K).
For the molecule 180-bp parS DNA cut with BamHI or EcoRI, the binding signal (fraction of closed-loop signal) in series [2] (1 uM ParT, free DNA end by BamHI or EcoRI, SPR at 4 C on Biacore …) was determined as 0.2; in series [3] it was 1.

B1: 40-bp parS duplex (dsDNA)
DNA 1: GGCCGACCTCGTGTCTCCAATTGGAGACATCAACGAGGGC
DNA 2: GCCCTCGTTGATGTCTCCAATTGGAGACACGAGGTCGGCC
With B1, the equilibrium dissociation constant (Kd) in series [4] came out at 680 ± 200 nM.

B2: 40-bp scrambled parS duplex (dsDNA)
DNA 1: ATCGGGCACCTTAGGGCAATCGTAAGTTCGGCGCACGACC
DNA 2: GGTCGTGCGCCGAACTTACGATTGCCCTAAGGTGCCCGAT
As for B2, the binding result in series [5] is given as “no binding”.

B3: biotinylated ParT (WT), ParB-like protein of plasmid SCP2 (natural protein)
chain: MSRRSLALPSTRSTEPDDADELEAAPEEKLAAARSAGVVASLTGADLSTPLTVAQLPTPYDVAETVTAPLNDQERGYLDVCEQALHGFRKSVVVAGKALEVINRGRLYRETHETFADYVTEVWDMKRAHAYRMIEGWRPADLVSPIGDINEGQARELAPVLKEYGPEVTVTLYRGVKELRGDRRVTAADLSEARAALPPPKHLARPDQVRDVLTVAAAEGRAPRLAPAEPKVPAQAADEHQAEQVDEGGVSQDQVDEGAEAIATLEAAVAQQRQIYDRVGGGTLAAALLYDPGRGDHLRRELRQYAQRTAYRARDTSGEQVADDA
modifications: biotin (site and way of biotinylation not stated)
B3 returned an ATPase activity of 0.5 µM ParA with ATP, nonspecific DNA and ParT in increasing molar excess (ATP/ParA/hour) in series [6] of 6.

B4: ParT (WT), purified, unlabelled (natural protein, Streptomyces coelicolor, UniProt Q8VWE5 1-325, looked up)
chain: MSRRSLALPSTRSTEPDDADELEAAPEEKLAAARSAGVVASLTGADLSTPLTVAQLPTPYDVAETVTAPLNDQERGYLDVCEQALHGFRKSVVVAGKALEVINRGRLYRETHETFADYVTEVWDMKRAHAYRMIEGWRPADLVSPIGDINEGQARELAPVLKEYGPEVTVTLYRGVKELRGDRRVTAADLSEARAALPPPKHLARPDQVRDVLTVAAAEGRAPRLAPAEPKVPAQAADEHQAEQVDEGGVSQDQVDEGAEAIATLEAAVAQQRQIYDRVGGGTLAAALLYDPGRGDHLRRELRQYAQRTAYRARDTSGEQVADDA
notes: ParT (SCP2.04c), ParB-like protein encoded on plasmid SCP2 of Streptomyces coelicolor, UniProt Q8VWE5; the rows with itself tell the dimer; also called apo-ParT; SCP2.04c; source: purified
For the molecule B4, in series [7], the stoichiometry N (in general, a count of units in the complex or per binding partner) worked out at 2.

(Values after article PMC12260392, “Expanding the diversity of bacterial DNA partitioning: A CTP-independent ParABS system for plasmid partitioning in Streptomyces” (Proceedings of the National Academy of Sciences of the …, 2025).)
